Biological target: the molecule itself
Test: native MS

B1: pentameric ligand-gated ion channel of Erwinia chrysanthemi (ELIC) (natural protein)
chain: APADNAADARPVDVSVSIFINKIYGVNTLEQTYKVDGYIVAQWTGKPRKTPGDKPLIVENTQIERWINNGLWVPALEFINVVGSPDTGNKRLMLFPDGRVIYNARFLGSFSNDMDFRLFPFDRQQFVLELEPFSYNNQQLRFSDIQVYTENIDNEEIDEWWIRKASTHISDIRYDHLSSVQPNQNEFSRITVRIDAVRNPSYYLWSFILPLGLIIAASWSVFWLESFSERLQTSFTLMLTVVAYAFYTSNILPRLPYTTVIDQMIIAGYGSIFAAILLIIFAHHRQAMGVEDDLLIQRCRLAFPLGFLAIGCVLVIRGITL
stoichiometry N: 5

Reference: PMC4058633 (Nature protocols, 2013)
